Test: soluble on expression in E. coli; label from the status in PepcDB or PDB records

Soluble on expression in E. coli, not soluble:
MGSDKIHHHHHHLPQLLSAMRGPGTRSPDMPYARKTLAQIRSDAMADIAAALQGSDPLLRFAALKIIGVVLAGMTNEEYGYLDWIAKQTNPFTADDEYLEAWGALKKVYRKDASAASLSATFTGVAGKLLDDGTPVVRSDGATYTTSGTQTVVGTSVTVTIVADVAGAAGNADPGTVVALDIAVDGIQSTGAVIGTVSSGADIEDQEDYRARVLAKYQQPPQGGAAPDYVEWATDVAGVTRAWCAPNGFGAGTVVVYVMLDDAQAAHGGFPQGTDGVSQHDQGPGGLPRGTVATGDQLVVADAIVTLQPGTALVWICSPVENVLSFELTGSAGWSTAIRNAVKAQISDVFFRNGDPRGGTIDRSDINSAIAAVPGTAGFVITSITGVISGTPTTYPANITGSFGSLPVLGEVTFG, MGSDKIHHHHHHMDRVLFLAMTGAKHEAWQQATTANNLANVNTNAFKADLAAYRALPVVGDGAPTRTYVVDNTIGFDASQGSLQHTGNPSDFALGTPGFFAVQGADGQEAYTRDGGYVLDATGLMRTHSGLLIMGDGGPITVPAGSQVQLGSDGSVMAVPQSGANRAPQLVGQIKMVNPGPKDVYKGEDKLFHVNGGGTLPASADVKLVPETLESSNVNSVEALVQMISHGRQYELNIKMMQTSQQNDQQAAQLLSMS, MKFLLAVFLLAVCSLGESKKPKAQKVIYVQKVVPPQKQLSEYDLCKEQCRIESETQSNKERVELLKQEIDRAEQLLAEHNKHVDAPEIAPETYMEAGQVPPMRKASRYDHLKMAANKIVESTSELKNAVTGGGDN, YSSAYKEFIKKSMKYRTEEDTFTDANGLAGCRYWSPKNYEKIARMMAQPKYKPAFAYLFFFRSYVNDQQITSCVFQVQRDGMPESILVQPVLRDESSVTLE, IDHIEVLRDGASARYGSDAIAGVINIILKSADHGGSISSKYGQYKKGDGIQRQVSGNTGFALGDNGTLNLSGEGANNDYTNRAGDDLRASSIGSTTYGQQVFRQGEPETHEGKLQYNAEYSFNDAAEFYSFGGYSKRRGETAAFYRPSNASNNIAAIYPNGYLPLIHGTLEDTTFVTGLRGELADDWHYDLSANYGKNSYELRTKTINTSLGLNTPRSFDNGTLTNDQKQLSLDLSREFNATWLPYPVSVAFGAEYLRQGYQIEAGQAESYFQTGSSGLGGFRAADAGSYSRHNFAQYLDVETNLTEKLGVSAAVRHEDYSDFGSNVSGSLSARYDFTP, MGSDKIHHHHHHVSKLSKTRIILACLLNDSVMTTTTAALTPNPIPDLGTDLTTEPCPLTAAQLDVLNRQIKLWGKELGFAHIGVADVDLSQHEAALQDWLDKGYHGEMGYMANHGMMRARPAELHPGAIRVICARMDYLPPDAGFASNLTDPNLGYISRYAGGRDYHKLIRQRLKKLGDKINQYCQQLDFDATDFRPFVDSAPILERPLADKAGLGWTGKHSLILHPDAGSWFFLGELLINLPLPLDIPIEEGCNTCVACIKSCPTDAIVEPYVVDARRCISYLTIELQGAIPEEFRPLIENRIYGCDDCQLVCPVNAKAPLTKETDFHTRTTLIQPDLLTLFAWSETYFLNQTEGSAIRRIGHKRWLRNIAIALGNAPANPAIIEALEQRKHSEEVDDMVLEHIEWALVQQIQKAPQSALSRKTQRVIRSIQKGLPRDA, SPFDANKLYCSEVLAILLQDNDENRELLGELDGIDVLLQQLSVFKRHNPSTAEEQEMMENLFDSLCSCLMLSSNRERFLKGEGLQLMNLMLREKKISRSSALKVLDHAMIGPEGTDNCHKFVDILGLRTIFPLFMKSPRKIKKVGTTEKEHEEHVCSILASLLRNLRGQQRTRLLNKFTENDSEKVDRLMELHFKYLGAMQVADKKIEGEKHDMVRRGEIIDNDTEEEFYLRRLDAGLFVLQHICYIMAEICNANVPQIRQRVHQILNMRGSSIKIVRHIIKEYAENIGDGRSPEFRENEQKRILGLLENF, MGSDKIHHHHHHSCDNKGDYWGAMESSKATLTLERICDMATLSQDSVELLSNILGMNTEELYRTDVVMIGKVTSEETGFYQYPRFLIAKDREMKEVLTEAYVHRDTEGTFYAFLESNMLPVGETYYCAMVDYNYGYNGRPGLLDHVLGGNTRGERYSEVKPFRLSGLPRLVVHDAHFTGYSFYLSAEVRFKSNGGIIEQGACYSSTKRIPTVDDQKTLARETRNYDYSFLEVEVTDLLPNTHYYIRPYVTTEEGTGYGPVVEFTTEPGTEPIIDYFTMYIDTDRSVNLYATFYIDNYQITHYGYSYGIYSPETGTVTDEQKIEVPLEDNHGQQLSKVITGLRPGILYAFRVYAENGVGVTYSGYQTVKIPVE, MAHHHHHHMTLTSRTAQAAHAQNDVAAQRPPPPLYPSMNVGASAVHPHQNRPCHAYDSQPAWQNPQLGTAPPAVIAGAPLAPEQQQQQTHQQGRSNQPQSIFGGRFTLLDRLGSGGFGEVYRAEECDQLVPLAVKVERVTDTNALPEQSFLFHEAKVMQEIHKSIQAYMAAQQQHQLLRLQQEKAQSGNGRRANNEAAAAADEVRQEKVGIAKLKYYGQDGMSRVLIMSLHGQSVANVHRHQGRLSLFATVMIADQVLRSLEHVHRAGYVHADLKPDNILLGREDPEQLYLVDFGLSVHFRDRKGKHRPLVTNHSFVGTPRYASLRTHMGHTLSRRDDIEQLVYVMIYLFRGRLPWSGLRISDPDAKEKRIAQMKAEMTLDSICAGCPEAFRDVLNYARCMEFEEEPQYQFLHVLLCSLRDSCTELSSDPSCVPANGSGGVMPQMLTLNVNCSTRQHPKDQNGGDAAANGGAVGVTAAEAGLVQNTNIVSGVVEQIDGVAENPMMMSSRGTGAPAFFSDAIGQGFLSGNGTDAGPLSPRIDCLNGQPFSPPPLDLQRPCGSPQLRQMR, MADEQEIMCKLESIKEIRNKTLQMEKIKARLKAEFEALESEERHLKEYKQEMDLLLQEKMAHVEELRLIHADINVMENTIKQSENDLNKLLESTRRLHDEYKPLKEHVDALRMTLGLQRLPDLCEEEEKLSLDYFEKQKAEWQTEPQEPPIPESLAAAAAAAQQLQVARKQDTRQTATFRQQPPPMKACLSCHQQIHRNAPICPLCKAKSRSRNPKKPKRKQDE, MGSDKIHHHHHHMTAMRGDGGRVLHTGFGVVRGVLFDIDDTLVDLEYAMTTALRDVSEHLLPGLDQAGWEKFGRIFTHETTHFYDRYLAGELTFNEQRLLRGRAALGHFGVELEEGEESHAWVTSYAALQHGYVRAFEDVAPVLDALDAAGIPYGAVSNNVHDYQRVKLDAAGLQRITVLVGTDTLGVPKPDPAIYLEGVRLLGSSAAETLYVGDNRLLDAEGSTAAGLLGVWLNRSGETESAFAGHQVGSLAELLG, MGSDKIHHHHHHMIGFDYGTSNCGVATMRNGQPHIIPLLGNESYIASNLYAPSRDVIANWLSQQLDSPQQANFIAERKAQLQKGQAALRELKFDGISSELLFGKSALAQYLEDPEEGYYIKSPKSFLGASGLATAQIQFFEDIVACMMSNVKNLTEQALQKEVTQTVIGRPINFQGLHGEESNRQAISVLTNAAKRVGFKDVEFQYEPVAAGFEFESSLTKETRVLVVDIGGGTSDCSMLLMSPDFTDNDNRNDHLLAHTGVRVAGNDFDIQLALQGIMPSFGMNSLLKTGKPMPTSSFYQALAINNINEQTEFYSAKNRRNLVQLSRDAKETAIIERLVAVHDHKLSYQLVNAAEQAKIALTEQSKQTIDLSDVTDGLCAEVTKETLRSANKRTLESIANIMQSAVQQAQCQPDVIFVTGGTAKSPVLSEFLQQQMPNVPIVVGDHFGSVTSGLARWAEKIYQ, MRSGQMEIIIGWLYPQLMSTYGDRGNVIIIERRAQWREYNVTVLPLDQNSTPDDLKSVDVIVGGGAQDRQQEIVMRDLQGAKADAMREKIENGTPGVFTCGSPQLLGHYYEPGFGQRIEGLGILDLVSIHPGENTKRCIGNLVIEVTASRFAQELEAMTGTKPYLVGFENHGGRTKLGKVEALGRVVYGLGNNGEDGTEGAFYQNAIATYSHGPLLPKNPFVADWLIQTALRLKYQEEIQLSPLNDTLAMQGREAMFKRLKVNLPLAGRI

Soluble on expression in E. coli, soluble:
KPPAESASQTAVAITQSSVKTMAPALQAIVDQSWQLQLSASPEMAYGMGDKSAAGKLQDLSPEALAKLNQGQIAILVQLKALDRSKLSKEDKINAQILEDQLQNEVDLYKYKDYYLPITAESGFHAYISSIAQGRFNTQEDYQNYLDKLKALPNYFAQQTYWLKQGLKEGITPPKATLKGFENSISAYILPVEKSSYFKPFTQYPNHFTEAQKAQLTQQGRALVEQNVIPTYQAFYDFMTQEYMPNTRDNIAANSLPNGDAFYENRVRYYTTLDITSAEVHELGLKEVKRIRQEMEQVIKSVGFKGSFADFLYFLRTDPQFYATSADQLLKEAAFIAKKADATLPKYFGKLPRKPYGIAPVPAEIAPKYTSGRYSGSNRDDEPGYYWVNTYALDKRPLYELEALTLHEAVPGHHLQISLNSELSSQPDFRRYSYISAFGEGWGLYSEYLGLEAGFYQDPYSNFGRLTYEMWRAARLVVDTGMHAQGWSREQAIEFMANNTALSLHNVTTEIDRYITWPGQALSYKIGELTIKRLRAKAEQALGDKFDIRAFHDAVLENGSVPMSVLEQQINDFIEAKKAA, MGHHHHHHSHMKYYRRALYDKFVHFYLVISDDGSSEAQLRGKMGGLVRKARKKISPDWPKEEQIHQLLQLFYGDWGFHCDPEDYFYARNLYLPYVFEHRQGMPVTLGAMVFYLAEALDLPIYPVNFPTQLILRAEVRDEVAFIDPWDGTYISQEKLQQLYEGAFGFGAKIQPEELDRADLSLLYSRFEQLAKNALIREEHNDMAYHYIKNLMITDAENPYHIRDRGLVLAQMGAYPSALKDLEFFVEHCPKDPTAAFIRTQLLELKGEINKDTFPLH, MFEIRDVDLAGRIGRIYTQHGVVETPAFFPVIDVYRQEVSVDEVRAAGFGQVITNAYLLWKRFGWEAAEKGVHRILGFPGVVMTDSGAYQILEYGGVELSQGEVVEYQKRLGSDIAVILDIPTGDVGRREAEESVRETIRRALEARVMIEGDERIWVYPVQGGRYFDLVEESARVGGRLGFYRMYGIGSPTVFLERYMYHVVVEAVYRAKKHLPWGRPVHLFGAGHPLIFPYAVALGVDTFDSASYILYAREGRYITEYGVYRIEDLDYLPCSCPVCSRYTPQELREMDRVERTRLLALHNLYVISASMRRVKQAIREGRLWELLEETSRKHPSTARVMARMRRYIDALEKGSARGRGVVRGVRAYGLESLSNPRLSRFSSDAARLVEAMAEKWGGGKAVLKPLDPKPEPGQCESMVGGGEWILFYQPFLGVFPVEACGAYPSLQIDYPQEGLPAEVIGDLASKIASTVSILRGRGFTVRLEYCGKVEWQARAVEALKTAAAGDLPTVEACG, GAMEPKASCPAAAPLMERKFHVLVGVTGSVAALKLPLLVSKLLDIPGLEVAVVTTERAKHFYSPQDIPVTLYSDADEWEMWKSRSDPVLHIDLRRWADLLLVAPLDANTLGKVASGICDNLLTCVMRAWDRSKPLLFCPAMNTAMWEHPITAQQVDQLKAFGYVEIPCVAKKLVCGDEGLGAMAEVGTIVDKVKEVLFQHSGFQQS, MSLKLTKKVGYAGRVITERGLEELEKANISYRLGSIYSNILEKTISANYRFGYVVINRCQVYADFNDVLKIIKSVYESGLAVGDRVGIIDREKFVEINTLCSLNFDNILLQNGIFPLHVCAGVVKYEDGKPVEFKEIIDYKSTSIDPLRAFIEKKETDVMGIIENGEGYLPANFRYFGVEFLERFETILEIDELKCIISYGTENVLGLDVGDDKVGVALIGGLTPIAPFVENNYCVEICPMSSIVRLESLHKLKKNPRDIVTKKANIRIKTALSKMFNAMAKVTYDIDEADGDVIVNTAFIDKKYLDEAFDILKEAYKKGLGISDRFGIVEENDRIKIQTICAVTLDGIFLRNSVPLIPKYGGILEITEDKERFIDIIGYDGSSLDPHEVFFNFVDCEKTFLAGFREVHRVAREKLEEVLKKLNWNGIKAIGEPNNELYGIGVNKDMCGVVTMGGINPLVLLKENEIPIELKAMHEVVRFSDLKSYKEIEGHHHHHH

Source: the DeepSol protein solubility set
